Key:
[1] = system: GST:atALKBH9B wt (Arabidopsis thaliana); assay: EMSA; conditions: EMSA: 5 ng RNA in 10 ul Union Buffer (100 mM Tris-HCl pH 8.0, 1 M NaCl, 8 U RiboLock (so in the source)), 30 min at 4 C, 1.2% agarose; northwestern: 10 mM Tris-HCl pH …
[2] = system: GST:RBD (Arabidopsis thaliana); assay: EMSA; conditions: EMSA: 5 ng RNA in 10 ul Union Buffer (100 mM Tris-HCl pH 8.0, 1 M NaCl, 8 U RiboLock (so in the source)), 30 min at 4 C, 1.2% agarose; northwestern: 10 mM Tris-HCl pH …

3'UTR transcript of AMV RNA3/4
Kd [1]: 300 nM
Kd [2]: 640 nM

From publication PMC8287571
